From article PMC9482650, “Quantitative fragmentomics allow affinity mapping of interactomes” (Nature Communications, 2022)

B1: CLDN2, P57739 (peptide)
chain: FNSYSLTGYV

The binders below were run against DLG4_3, P78352 (assay: holdup assay). Settings: plain residues with an end cap or a label only (N-terminal biotin on a linker: ado-ado).
DLG4_3, P78352, sequence (P78352 306-403): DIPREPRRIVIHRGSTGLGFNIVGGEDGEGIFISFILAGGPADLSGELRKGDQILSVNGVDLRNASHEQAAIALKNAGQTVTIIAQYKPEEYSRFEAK
Parameters: key: below the threshold = too weak to quantify, mostly under pKd 3.1 to 4
B1 was tested, and the pKd was “below the threshold”.

What follows are binders tested against FRMPD3, Q5JV73 (assay: holdup assay). Settings: plain residues with an end cap or a label only (N-terminal biotin on a linker: ado-ado).
FRMPD3, Q5JV73, sequence (Q5JV73 12-100): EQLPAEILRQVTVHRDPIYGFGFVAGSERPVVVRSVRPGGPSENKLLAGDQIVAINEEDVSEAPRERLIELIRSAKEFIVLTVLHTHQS
Parameters: key: below the threshold = too weak to quantify, mostly under pKd 3.1 to 4
For B1, the pKd was “below the threshold”.

The binders below were run against GORASP2, Q9H8Y8 (assay: holdup assay). Settings: plain residues with an end cap or a label only (N-terminal biotin on a linker: ado-ado).
Parameters: key: below the threshold = too weak to quantify, mostly under pKd 3.1 to 4
For B1, the pKd was 4.36.

These binders were tested against MAGI1_2, Q96QZ7 (assay: holdup assay). Settings: plain residues with an end cap or a label only (N-terminal biotin on a linker: ado-ado).
MAGI1_2, Q96QZ7, sequence (Q96QZ7 456-580): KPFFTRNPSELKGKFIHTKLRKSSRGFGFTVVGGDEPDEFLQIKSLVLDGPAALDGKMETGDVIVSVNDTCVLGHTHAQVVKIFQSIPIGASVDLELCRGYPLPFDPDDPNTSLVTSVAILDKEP
Parameters: key: below the threshold = too weak to quantify, mostly under pKd 3.1 to 4
In the case of B1, the pKd is reported as “below the threshold”.

These binders were tested against GRASP, Q7Z6J2 (assay: holdup assay). Settings: plain residues with an end cap or a label only (N-terminal biotin on a linker: ado-ado).
GRASP, Q7Z6J2, sequence (Q7Z6J2 96-193): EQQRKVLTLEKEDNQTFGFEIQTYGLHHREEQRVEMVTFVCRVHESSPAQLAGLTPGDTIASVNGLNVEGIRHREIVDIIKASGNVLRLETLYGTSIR
Parameters: key: below the threshold = too weak to quantify, mostly under pKd 3.1 to 4
Binder B1 has a pKd of 3.82.

What follows are binders tested against T1, SHANK1, Q9Y566 (assay: holdup assay). Settings: plain residues with an end cap or a label only (N-terminal biotin on a linker: ado-ado).
T1 sequence (Q9Y566 658-767, limits assumed, looked up): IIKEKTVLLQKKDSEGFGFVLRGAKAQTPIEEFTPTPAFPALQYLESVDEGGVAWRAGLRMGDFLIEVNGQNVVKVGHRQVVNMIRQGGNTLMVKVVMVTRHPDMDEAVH
Parameters: key: below the threshold = too weak to quantify, mostly under pKd 3.1 to 4
B1 was tested, and the pKd was “below the threshold”.

What follows are binders tested against MAGI2_2, Q86UL8 (assay: holdup assay). Settings: plain residues with an end cap or a label only (N-terminal biotin on a linker: ado-ado).
MAGI2_2, Q86UL8, sequence (Q86UL8 410-522): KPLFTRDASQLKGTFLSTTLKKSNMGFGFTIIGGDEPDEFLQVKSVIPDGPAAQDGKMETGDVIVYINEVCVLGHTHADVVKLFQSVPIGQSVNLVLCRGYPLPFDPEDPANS
Parameters: key: below the threshold = too weak to quantify, mostly under pKd 3.1 to 4
B1 was tested, and the pKd was 3.67.

Each binder was assayed against T2, MPP6, Q9NZW5 (assay: holdup assay). Settings: plain residues with an end cap or a label only (N-terminal biotin on a linker: ado-ado).
T2 sequence (Q9NZW5 125-219, limits assumed, looked up): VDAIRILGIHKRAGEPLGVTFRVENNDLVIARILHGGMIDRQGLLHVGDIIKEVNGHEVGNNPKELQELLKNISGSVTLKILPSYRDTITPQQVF
Parameters: key: below the threshold = too weak to quantify, mostly under pKd 3.1 to 4
In the case of B1, the pKd is reported as “below the threshold”.

The binders below were run against T3, RADIL, Q96JH8 (assay: holdup assay). Settings: plain residues with an end cap or a label only (N-terminal biotin on a linker: ado-ado).
T3 sequence (Q96JH8 971-1071, limits assumed, looked up): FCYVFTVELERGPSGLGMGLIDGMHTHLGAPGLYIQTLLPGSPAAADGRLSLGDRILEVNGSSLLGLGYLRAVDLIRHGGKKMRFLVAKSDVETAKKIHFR
Parameters: key: below the threshold = too weak to quantify, mostly under pKd 3.1 to 4
Work on B1 yielded a pKd of 4.99.

These binders were tested against SCRIB_2, Q14160 (assay: holdup assay). Settings: plain residues with an end cap or a label only (N-terminal biotin on a linker: ado-ado).
SCRIB_2, Q14160, sequence (Q14160 857-960): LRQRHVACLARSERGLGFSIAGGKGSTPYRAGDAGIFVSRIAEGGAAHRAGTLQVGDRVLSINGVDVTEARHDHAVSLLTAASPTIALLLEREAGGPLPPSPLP
Parameters: key: below the threshold = too weak to quantify, mostly under pKd 3.1 to 4
B1 was tested, and the pKd was “below the threshold”.

What follows are binders tested against IL16_1, Q14005 (assay: holdup assay). Settings: plain residues with an end cap or a label only (N-terminal biotin on a linker: ado-ado).
IL16_1, Q14005, sequence (Q14005 210-306): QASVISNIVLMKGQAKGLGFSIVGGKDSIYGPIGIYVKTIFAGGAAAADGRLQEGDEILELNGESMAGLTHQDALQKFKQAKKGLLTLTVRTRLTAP
Parameters: key: below the threshold = too weak to quantify, mostly under pKd 3.1 to 4
B1 showed a pKd of 3.8.

These binders were tested against GOPC, Q9HD26 (assay: holdup assay). Settings: plain residues with an end cap or a label only (N-terminal biotin on a linker: ado-ado).
Parameters: key: below the threshold = too weak to quantify, mostly under pKd 3.1 to 4
In the case of B1, the pKd is reported as 3.66.

What follows are binders tested against SCRIB_3, Q14160 (assay: holdup assay). Settings: plain residues with an end cap or a label only (N-terminal biotin on a linker: ado-ado).
SCRIB_3, Q14160, sequence (Q14160 999-1103): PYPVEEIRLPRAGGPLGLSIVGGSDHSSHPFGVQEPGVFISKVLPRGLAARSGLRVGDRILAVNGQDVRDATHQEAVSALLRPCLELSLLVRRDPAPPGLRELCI
Parameters: key: below the threshold = too weak to quantify, mostly under pKd 3.1 to 4
With B1 the pKd was 3.53.

Each binder was assayed against T4, SIPA1L2, Q9P2F8 (assay: holdup assay). Settings: plain residues with an end cap or a label only (N-terminal biotin on a linker: ado-ado).
T4 sequence (Q9P2F8 945-1036, limits assumed, looked up): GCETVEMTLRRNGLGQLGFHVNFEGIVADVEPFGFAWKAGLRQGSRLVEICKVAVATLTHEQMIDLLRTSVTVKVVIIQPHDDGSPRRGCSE
Parameters: key: below the threshold = too weak to quantify, mostly under pKd 3.1 to 4
Work on B1 yielded a pKd of 3.5.

These binders were tested against AHNAK1, Q09666 (assay: holdup assay). Settings: plain residues with an end cap or a label only (N-terminal biotin on a linker: ado-ado).
AHNAK1, Q09666, sequence (Q09666 4-100): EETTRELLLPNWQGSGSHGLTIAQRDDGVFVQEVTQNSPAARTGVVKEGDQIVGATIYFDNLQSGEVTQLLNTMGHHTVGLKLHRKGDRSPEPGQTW
Parameters: key: below the threshold = too weak to quantify, mostly under pKd 3.1 to 4
For B1, the pKd was “below the threshold”.

The binders below were run against MAGI3_2, Q5TCQ9 (assay: holdup assay). Settings: plain residues with an end cap or a label only (N-terminal biotin on a linker: ado-ado).
MAGI3_2, Q5TCQ9, sequence (Q5TCQ9 398-503): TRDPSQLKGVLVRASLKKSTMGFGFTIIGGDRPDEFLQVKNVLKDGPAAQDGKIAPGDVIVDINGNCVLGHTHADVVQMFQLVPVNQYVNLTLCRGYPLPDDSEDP
Parameters: key: below the threshold = too weak to quantify, mostly under pKd 3.1 to 4
B1 gave a pKd of 4.21.

These binders were tested against TJP2_1, Q9UDY2 (assay: holdup assay). Settings: plain residues with an end cap or a label only (N-terminal biotin on a linker: ado-ado).
TJP2_1, Q9UDY2, sequence (Q9UDY2 24-128): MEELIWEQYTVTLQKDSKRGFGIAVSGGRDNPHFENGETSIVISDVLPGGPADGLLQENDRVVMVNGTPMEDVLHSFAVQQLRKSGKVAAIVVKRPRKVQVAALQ
Parameters: key: below the threshold = too weak to quantify, mostly under pKd 3.1 to 4
For B1, the pKd was 4.84.

What follows are binders tested against T5, DLG3_1, Q92796 (assay: holdup assay). Settings: plain residues with an end cap or a label only (N-terminal biotin on a linker: ado-ado).
T5 sequence (Q92796 125-227, limits assumed, looked up): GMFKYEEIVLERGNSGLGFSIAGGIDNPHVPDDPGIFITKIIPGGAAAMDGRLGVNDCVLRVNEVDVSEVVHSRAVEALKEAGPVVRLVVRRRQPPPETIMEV
Parameters: key: below the threshold = too weak to quantify, mostly under pKd 3.1 to 4
With B1 the pKd was “below the threshold”.

What follows are binders tested against LDB3, O75112 (assay: holdup assay). Settings: plain residues with an end cap or a label only (N-terminal biotin on a linker: ado-ado).
LDB3, O75112, sequence (O75112 1-94): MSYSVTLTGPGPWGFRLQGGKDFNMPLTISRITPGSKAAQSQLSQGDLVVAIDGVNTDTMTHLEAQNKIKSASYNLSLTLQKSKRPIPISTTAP
Parameters: key: below the threshold = too weak to quantify, mostly under pKd 3.1 to 4
B1 was tested, and the pKd was “below the threshold”.

These binders were tested against DLG1_3, Q12959 (assay: holdup assay). Settings: plain residues with an end cap or a label only (N-terminal biotin on a linker: ado-ado).
Parameters: key: below the threshold = too weak to quantify, mostly under pKd 3.1 to 4
B1 was tested, and the pKd was “below the threshold”.

The binders below were run against PDLIM1, O00151 (assay: holdup assay). Settings: plain residues with an end cap or a label only (N-terminal biotin on a linker: ado-ado).
PDLIM1, O00151, sequence (O00151 1-87): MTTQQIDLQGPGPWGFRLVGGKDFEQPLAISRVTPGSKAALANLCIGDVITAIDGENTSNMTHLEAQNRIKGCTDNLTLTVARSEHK
Parameters: key: below the threshold = too weak to quantify, mostly under pKd 3.1 to 4
With B1 the pKd was “below the threshold”.

These binders were tested against DLG1_1, Q12959 (assay: holdup assay). Settings: plain residues with an end cap or a label only (N-terminal biotin on a linker: ado-ado).
Parameters: key: below the threshold = too weak to quantify, mostly under pKd 3.1 to 4
B1 was tested, and the pKd was “below the threshold”.

What follows are binders tested against T6, GRIP1_5, Q9Y3R0 (assay: holdup assay). Settings: plain residues with an end cap or a label only (N-terminal biotin on a linker: ado-ado).
T6 sequence (Q9Y3R0 568-668, limits assumed, looked up): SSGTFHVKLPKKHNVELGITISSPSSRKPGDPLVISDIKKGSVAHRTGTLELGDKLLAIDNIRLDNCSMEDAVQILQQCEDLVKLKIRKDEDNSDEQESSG
Parameters: key: below the threshold = too weak to quantify, mostly under pKd 3.1 to 4
For B1, the pKd was “below the threshold”.

These binders were tested against T7, DLG3_2, Q92796 (assay: holdup assay). Settings: plain residues with an end cap or a label only (N-terminal biotin on a linker: ado-ado).
T7 sequence (Q92796 221-321, limits assumed, looked up): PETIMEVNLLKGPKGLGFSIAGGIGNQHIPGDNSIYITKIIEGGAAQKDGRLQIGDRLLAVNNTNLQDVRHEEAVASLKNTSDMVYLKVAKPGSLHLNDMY
Parameters: key: below the threshold = too weak to quantify, mostly under pKd 3.1 to 4
With B1 the pKd was “below the threshold”.

Each binder was assayed against T8, LIN7A, O14910 (assay: holdup assay). Settings: plain residues with an end cap or a label only (N-terminal biotin on a linker: ado-ado).
T8 sequence (O14910 103-200, limits assumed, looked up): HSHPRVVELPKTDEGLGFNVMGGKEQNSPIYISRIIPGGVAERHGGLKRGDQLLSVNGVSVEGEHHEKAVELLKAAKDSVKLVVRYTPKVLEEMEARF
Parameters: key: below the threshold = too weak to quantify, mostly under pKd 3.1 to 4
In the case of B1, the pKd is reported as “below the threshold”.

The binders below were run against TJP1_2, Q07157 (assay: holdup assay). Settings: plain residues with an end cap or a label only (N-terminal biotin on a linker: ado-ado).
TJP1_2, Q07157, sequence (Q07157 181-274): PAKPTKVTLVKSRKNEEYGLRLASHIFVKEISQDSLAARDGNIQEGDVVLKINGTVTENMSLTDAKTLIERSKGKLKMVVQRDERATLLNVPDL
Parameters: key: below the threshold = too weak to quantify, mostly under pKd 3.1 to 4
In the case of B1, the pKd is reported as “below the threshold”.

What follows are binders tested against T9, ARHGEF11, O15085 (assay: holdup assay). Settings: plain residues with an end cap or a label only (N-terminal biotin on a linker: ado-ado).
T9 sequence (O15085 42-136, limits assumed, looked up): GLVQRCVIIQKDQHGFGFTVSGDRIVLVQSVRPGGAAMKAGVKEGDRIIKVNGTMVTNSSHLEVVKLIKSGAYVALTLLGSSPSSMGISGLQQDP
Parameters: key: below the threshold = too weak to quantify, mostly under pKd 3.1 to 4
With B1 the pKd was 3.94.

The binders below were run against DLG4_2, P78352 (assay: holdup assay). Settings: plain residues with an end cap or a label only (N-terminal biotin on a linker: ado-ado).
DLG4_2, P78352, sequence (P78352 155-259): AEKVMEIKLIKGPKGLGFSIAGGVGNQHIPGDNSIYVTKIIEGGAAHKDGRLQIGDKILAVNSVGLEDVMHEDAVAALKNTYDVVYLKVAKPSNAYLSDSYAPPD
Parameters: key: below the threshold = too weak to quantify, mostly under pKd 3.1 to 4
B1 showed a pKd of 3.56.
